What was measured:
[1] = biological target: T1, 4Ig-domain of Neogenin (Gallus gallus, UniProt Q90610); assay: ELISA / AP binding assay of RGMa peptides to Neogenin domains; settings: ELISA, Neogenin domains fused to AP
T1 construct: made in house
T1 sequence (Q90610 1-383): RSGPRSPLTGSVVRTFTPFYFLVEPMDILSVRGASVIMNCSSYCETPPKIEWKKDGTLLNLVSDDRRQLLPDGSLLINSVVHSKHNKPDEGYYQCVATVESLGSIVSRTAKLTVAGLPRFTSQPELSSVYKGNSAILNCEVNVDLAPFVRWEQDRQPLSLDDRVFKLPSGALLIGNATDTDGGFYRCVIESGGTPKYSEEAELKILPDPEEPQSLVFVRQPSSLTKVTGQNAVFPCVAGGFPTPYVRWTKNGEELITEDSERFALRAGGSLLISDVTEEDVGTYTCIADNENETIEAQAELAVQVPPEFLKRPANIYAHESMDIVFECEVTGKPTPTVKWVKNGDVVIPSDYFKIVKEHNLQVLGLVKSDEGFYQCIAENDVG
Text: Specifically, the 4Ig-domain and 6FNIII-domain of Neogenin were each fused to alkaline phosphatase (AP). The 4Ig-domain and 6FNIII-domain of Neogenin were found in the extracellular portion of Neogenin. Accession No. AAC59662 (SEQ ID NO:1) was the amino acid sequence of Neogenin. The 4Ig-domain was amino acids 1 to 383 of Accession No. AAC59662 (SEQ ID NO:1). The 6FNIII-domain was amino acids 429 to 1036 of Accession No. AAC59662 (SEQ ID NO:1).
The binding of these fusions to various RGMa peptides were analyzed in an ELISA assay (FIG. 2A).
To determine if distinct N-terminal regions of RGMa bound the 4Ig- and 6FNIII-domains of Neogenin, peptides were generated that spanned the N-terminal region of RGMa. The amino acid sequence of RGMa was Accession No. NP_989868.1 (SEQ ID NO:6). These peptides were a peptide spanning amino acids 28-73 of RGMa (also referred to herein as “N-Raft”) and a peptide spanning amino acids 77-113 of RGMa (also referred to herein as “N-inh”). […] In a complementary experiment, in which the N-Raft and N-inh peptides of RGMa were fused with AP instead of the 4Ig- and 6FNIII-domains of Neogenin, N-Raft bound to the 4Ig-domain and not the 6FNIII-domain while N-inh bound to the 6FNIII-domain and not the 4Ig-domain (FIG. 9). Additionally, N-inh and N-Raft coated beads pulled down 6FNIII-domain and 4Ig-domain, respectively, which was consistent with the ELISA results described above (FIG. 2B).
The assay was conducted in a 96-well microtiter plate (Corning Incorporated). The wells were coated with 100 μl (10 μg/mL) of Poly-L-Lysine at 4° C. overnight. Wells were then washed three times with 100 μl of PB ST (+0.02% Tween).
50 μl (2.5 μg/mL) of His-tagged: Full-length Neogenin; the 4Ig-domain of Neogenin; and 6FNIII-domain of Neogenin were coated onto each well for 1 hour at 37° C. Following three washes of 100 μl PBST, each well was then blocked with 300 μl of 3% BSA in PBST for 1 hour at 37° C.
50 μl (1.0 μg/mL) AP-tagged: N-RGMa (28-73); N-RGMa (28-54); N-RGMa (40-62); N-RGMa (54-73); N-RGMa (54-62) in 1% BSA+PBST was then added to each well and incubated at 37° C. for 1 hour. Each well was washed thoroughly three times with 100 μl PBST followed by subsequent equilibration of each well with Alkaline Phosphatase (AP) developing buffer (100 mM NaHCO3, 1 mM MgCl2). The reaction was developed using AP developing buffer supplemented with, p-nitrophenyl phosphate (pNPP) (Sigma-Aldrich) and allowed to develop until color development. The reaction was stopped with the addition of 50 μl (0.1M) NaOH. The absorbance of each reaction was measured using a microplate autoreader (BIO-TEK Instruments Inc.) at 405 nanometers (nm) wavelength.

[2] = biological target: T2, 4Ig-domain of Neogenin (His-4Ig) (Gallus gallus, UniProt Q90610); assay: Pull-down assay with peptide-coated beads; assay type: binding; settings: Western blot with anti-His
T2 construct: 6-His (N); myc (C); 6-His (C); made in house
T2 sequence (Q90610 1-383): T1 sequence (Q90610 1-383)
Description: (A) RGMa proteins were incubated on plates coated with 4Ig- or 6FNIII-AP. One C- and one N-RGMa domain (N-RGMa^77-113) interacted with 6FNIII. One N-RGMa domain (N-Raft) interacted with 4Ig. (B) Supernatants (Sup) from cells expressing His-6FNIII or His-4Ig, were pulled down (IP) with beads coated with N-Raft, N-RGMa^50-99, and N-inh. Western Blot was then performed with an anti-His antibody to reveal whether or not His-6FNIII or His-4Ig interacted with the coated beads. […] Data are average±SEM (n=3 independent experiments), *p<0.0001. Scale bar, 100 μm. (E) Chick brains were injected with control peptide (Ctrl; N-RGMa^50-99), 4Ig, N-Raft, or Noggin 1 day before preparing membrane fractionations. In control experiments, Neogenin localized to the Flotillin/RGMa-containing lipid raft fraction (as shown in solid lined boxes). 4Ig, N-Raft, or Noggin shifted Neogenin to heavy fractions.
Proteins were coupled to activated CNBr Sepharose beads (Pharmacia) according to supplier instructions. Supernatants from transfected cells were added to coupled beads for 2 h at room temperature (RT). Beads were then washed 6× with PBS plus 0.02% Tween 20, and SDS loading buffer was added. Samples were boiled and subjected to Western blotting.

[3] = tested on: EAE paralysis; assay: EAE mouse model of multiple sclerosis; assay type: in vivo; settings: 3 μg IV at days 3, 6, 9; after 17 days; control approaching 5
Description: Specifically, whether or not 4Ig reduced paralysis in the EAE model was tested. To induce EAE, C57BL6/J mice were injected with an emulsion of MOGp35-55 peptide (50 μg, day 0) mixed with complete Freund's adjuvant (CFA). On day 2, the animals also received 400 ng of pertussis toxin (PTX) intraperitoneally in order to produce severe and reliable EAE and then were examined for clinical signs in over a 17 day period (FIG. 28).
At days 3, 6, and 9 post-EAE induction, animals were treated with either 3 μg of 4Ig in PBS (IV injection) or PBS (Control).

Molecule: N-Raft: peptide spanning amino acids 28-73 of RGMa (SEQ ID NO:2) (SPCKILKCNSEFWAATSGSHHLGAEETPEFCTALRAYAHCTRRTAR; N-Raft - amino acids 28-73 of RGMa)
- interaction with the 4Ig-domain of Neogenin [1]: interacted
- pull-down of 4Ig-domain by peptide-coated beads [2]: pulled down

B1: 4Ig: four immunoglobulin-like domains of Neogenin, amino acids 1 to 383 of Accession No. AAC59662 (SEQ ID NO:1) (protein, listed as Gallus gallus)
chain: RSGPRSPLTGSVVRTFTPFYFLVEPMDILSVRGASVIMNCSSYCETPPKIEWKKDGTLLNLVSDDRRQLLPDGSLLINSVVHSKHNKPDEGYYQCVATVESLGSIVSRTAKLTVAGLPRFTSQPELSSVYKGNSAILNCEVNVDLAPFVRWEQDRQPLSLDDRVFKLPSGALLIGNATDTDGGFYRCVIESGGTPKYSEEAELKILPDPEEPQSLVFVRQPSSLTKVTGQNAVFPCVAGGFPTPYVRWTKNGEELITEDSERFALRAGGSLLISDVTEEDVGTYTCIADNENETIEAQAELAVQVPPEFLKRPANIYAHESMDIVFECEVTGKPTPTVKWVKNGDVVIPSDYFKIVKEHNLQVLGLVKSDEGFYQCIAENDVGNAQAGAQLIILDLDVAIPTLPPTSLTSATNDHLAPATTGPLPTAPRDVVATLVSTRFIRLTWRTPVSDPQGDNLTYSIFYTKEGINRERVENTSRPGETQVMIQNLMPETVYVFRVVAQNKHGHGESSAPLKVATQPEVQLPGPAPNIRAYAGSPTSVTVTWETPLSGNGEIQNYKLYYMEKGQDSEQDVDVAGLSYTITGLKKYTEYSFRVVAYNKHGPGVSTQDVVVRTLSDVPSAAPQNLTLEARNSKSIMLHWQPPPAGTHSGQITGYKIRYRKVSRKSDVTESVGGTQLFQLIEGLERGTEYNFRIAAMTVNGTGPATDWVSAETFESDLDESRVPEVPSSLHVRPLVTSIVVSWTPPENQNIVVRGYAIGYGIGSPHAQTIKVDYKQRYYTIENLDPSSHYVITLKAFNNVGEGIPLYESAVTRPHSDTSEVDLFVINAPYTPVPDPSPMMPPVGVQASILSHDTIRITWADNSLPKNQKITDARYYTVRWKTNIPANTKYKTANATTLSYLVTGLKPNTLYEFSVMVTKGRRSSTWSMTAHGTTFELVPTSPPKDVTVVSKEGKPRTIIVNWQPPSEANGKITGYIIYYSTDVNAEIHDWVIEPVVGNRLTHQIQELTLDTPYYFKIQARNSKGMGPMSEAVQFRTPKAESSDKMPNDQASGSAGKGSRPVDVGPDYKPPLSGSNSPHGSPTSPLDSNMLLVIIVSVGVITIVIVVIVAVFCTRRTTSHQKKKRAACKSVNGSHKYKGNSKDVKPPDLWIHHERLELKPIDKSPDPNPIMTDTPIPRNSQDITPVDNSMDSNIHQRRNSYRGHESEDSMSTLAGRRGMRPKMMMPFDSQPPQPVISAHPIHSLDNPHHHFHSGSLASPTRSYLHHQVSPWPVGTSMSHSDRANSTESVRNTPSSDTMPASSSQPCADHQDPDSSSGAYLGSAQEEDAAQSLPTAHVRPSHPLKSFAVPAVPAAGSAYDPTLPSTPLLTQQAPSHPVHSVKTASIGTLGRTRPPMPVVVPSAPDVQETTRMLEDSESSYEPDELTKEMAHLEGLMKDLNAITTA
modifications: Neogenin - Accession No. AAC59662
- clinical score [3]: 1.4

From US11497796B2, “Agents directed against a cis RGMa/neogenin interaction or lipid rafts and use of the same in methods of treatment” (UNIVERSITY HEALTH NETWORK, priority 2013, dated 2022)
